Consider one substance from patent US20210063414A1, “METHODS FOR PREVENTING AND/OR TREATING BONE LOSS CONDITIONS BY MODULATING IRISIN” (Dana-Farber Cancer Institute, Inc., priority 2018, published 2021).

In the experiment the target is T1, MLO-Y4 cell surface proteins (Mus musculus, UniProt Q9Z2I9).
T1 construct: endogenous in cells; host or cells: MLO-Y4
T1 sequence (Q9Z2I9 54-463): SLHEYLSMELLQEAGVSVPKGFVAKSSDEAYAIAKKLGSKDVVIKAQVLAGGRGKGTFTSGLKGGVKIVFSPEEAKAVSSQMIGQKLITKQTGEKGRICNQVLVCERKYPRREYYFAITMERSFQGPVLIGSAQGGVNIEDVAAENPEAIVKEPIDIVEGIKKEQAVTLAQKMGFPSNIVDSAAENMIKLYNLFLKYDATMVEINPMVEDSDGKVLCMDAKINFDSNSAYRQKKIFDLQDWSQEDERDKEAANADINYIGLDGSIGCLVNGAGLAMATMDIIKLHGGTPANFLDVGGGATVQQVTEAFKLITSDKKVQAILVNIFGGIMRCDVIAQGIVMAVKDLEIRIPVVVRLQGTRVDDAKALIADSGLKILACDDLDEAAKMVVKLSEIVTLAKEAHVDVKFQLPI
Kind of experiment: Crosslinking/co-immunoprecipitation/mass spectrometry (TMT quantitative proteomics) to identify irisin receptors. It counts as binding. The settings on record: co-precipitated protein Sucla2 (SUCB1_MOUSE). Summed up: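 Mouse MLO-Y4 cells were switched to serum-free FreeStyle medium for 4 h, chilled, then exposed to 10 nM His-tagged irisin (or adipsin as control) for 20 min. Cells were crosslinked with 1.5 mM DTSSP (30 min, ice), and bound proteins were pulled down on Ni-NTA and eluted with 250 mM imidazole. Eluates were separated by SDS-PAGE, trypsin-digested in gel, TMT 6-plex labelled and quantified by MS3-based LC-MS/MS on an Orbitrap Fusion Lumos.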

Consider adipsin, for which the TMT signal-to-noise ratio is 50.8753.
